Test results: the supplement of paper PMC10567573

B1: VPS39 (parent)
chain: LRLENNHCHIEESEHVLKKAHKYS
B2: TOR1AIP2 (parent)
chain: AGQEGEDTLRRRLLAPEAGSHPQQ

Variants of: B1
Test: protein stability index of a GFP-peptide fusion (GPS, HEK-293T) (PSI 1-6); higher = more stable
Conditions: c terminus: a fixed tail appended
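Further: lentivirally expressed fusions sorted by FACS into six bins by GFP to DsRed ratio, PSI derived from sequencing read proportions per bin multiplied by bin number.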

Protein stability index, by site and new letter:
E12: A 2.19 | C 2.11 | D 3.1 | F 1.24 | G 2.26 | H 2.75 | I 1.96 | K 2.94 | L 3.66 | M 2.68 | N 2.44 | P 1.93 | Q 2.15 | R 2.14 | S 2.61 | T 2.01 | V 1.35 | W 1.78 | Y 3.21
S13: A 2.69 | C 2.06 | D 2.49 | E 2.26 | F 1.73 | G 2.56 | H 2.18 | I 1.32 | K 2.92 | L 1.95 | M 1.64 | N 2.12 | P 2.63 | Q 1.82 | R 2.15 | T 2.37 | V 2.76 | W 1.01 | Y 2.75
E14: A 2.38 | C 1.37 | D 2.12 | F 1.46 | G 2.56 | H 2.33 | I 1.88 | K 2.29 | L 2.16 | M 1.73 | N 2.31 | P 2.4 | Q 2.1 | R 2.06 | S 2.42 | T 1.78 | V 2.9 | W 2.67 | Y 1.88
H15: A 2.87 | C 2.18 | D 2.56 | E 2.6 | F 2.53 | G 1.89 | I 2.41 | K 2.74 | L 2.1 | M 3.02 | N 3.07 | P 2.34 | Q 1.98 | R 2.86 | S 2.64 | T 2.71 | V 1.5 | W 2.09 | Y 2.41
V16: A 3.01 | C 2.1 | D 3.13 | E 2.83 | F 3.08 | G 2.62 | H 2.02 | I 2.29 | K 2.49 | L 2.47 | M 1.97 | N 2.38 | P 3.07 | Q 1.39 | R 2.48 | S 2.65 | T 2.39 | W 1.49 | Y 1.9
L17: A 1.83 | C 2.65 | D 3.68 | E 2.88 | F 2.79 | G 2.84 | H 1.55 | I 2.35 | K 2.27 | M 1.56 | N 2.48 | P 2.14 | Q 2.4 | R 2.8 | S 2.84 | T 3.14 | V 2.4 | W 1.72 | Y 2.55
K18: A 2.42 | C 2.02 | D 2.31 | E 1.94 | F 2.09 | G 2.08 | H 2.17 | I 2.26 | L 1.88 | M 2.12 | N 2.6 | P 1.85 | Q 2.42 | R 2.21 | S 1.91 | T 1.87 | V 2.54 | W 1.27 | Y 2.39
K19: A 2.3 | C 2.24 | D 2.59 | E 2.45 | F 1.98 | G 2.21 | H 1.91 | I 2.01 | L 1.52 | M 2.52 | N 2.39 | P 2.41 | Q 2.51 | R 2.37 | S 2.1 | T 2.2 | V 2.4 | W 1.34 | Y 2.67
A20: C 2.04 | D 2.73 | E 3.06 | F 2.24 | G 2.73 | H 2.3 | I 1.61 | K 2.13 | L 1.71 | M 1.98 | N 2.38 | P 2.23 | Q 1.45 | R 2.11 | S 2.19 | T 2.43 | V 2.52 | W 2.25 | Y 1.92
H21: A 3.18 | C 2.63 | D 2.73 | E 2.78 | F 2.52 | G 2.5 | I 1.38 | K 2.4 | L 1.9 | M 1.81 | N 2.68 | P 1.97 | Q 2.62 | R 2 | S 2.29 | T 2.27 | V 3.04 | W 2.12 | Y 2.25
K22: A 2.48 | C 2.02 | D 3.15 | E 2.4 | F 1.84 | G 2.96 | H 2.58 | I 1.65 | L 1.99 | M 1.62 | N 2.44 | P 2.79 | Q 2.12 | R 2.34 | S 2.51 | T 3.65 | V 2.57 | W 1.84 | Y 2.55
Y23: A 2.76 | C 2.25 | D 2.15 | E 3.12 | F 2.28 | G 2.75 | H 3.13 | I 3.14 | K 2.21 | L 2.7 | M 2.17 | N 3.05 | P 2.56 | Q 2.45 | R 2.25 | S 2.77 | T 2.4 | V 2.05 | W 1.72
S24: A 1.29 | C 2.17 | D 2.25 | E 3.82 | F 2.37 | G 2.84 | H 2.65 | I 2.04 | K 2.09 | L 2.08 | M 2.18 | N 2.3 | P 1.74 | Q 1.92 | R 2.38 | T 2.07 | V 1.83 | W 2.24 | Y 2.28

Variants of: B2
Test: as above
Conditions: c terminus: a fixed tail appended

Protein stability index of substitutions, site by site:
A1: D 4.05 | E 4.54 | F 1.83 | G 3.25 | H 3.53 | I 4.08 | K 2.54 | L 2 | N 2.5 | P 4.86 | Q 2.57 | R 2.29 | S 1.4 | T 2.11 | V 3.31 | W 3.19 | Y 2.26
G2: A 4.25 | C 1.6 | D 5.64 | E 2.74 | F 2.99 | H 3.58 | I 2.19 | K 3.32 | M 1.55 | N 3.23 | P 1.51 | Q 1.64 | R 2.91 | S 2.71 | V 1.67 | W 2.45 | Y 2.12
Q3: A 2.22 | C 1.34 | D 3.76 | E 3.17 | F 2.05 | G 2.65 | I 1.55 | K 2.02 | L 2.47 | M 1.74 | N 1.82 | P 2.92 | R 1.09 | S 2.31 | T 2.47 | V 2.27 | W 2.14 | Y 1.37
E4: C 2.16 | D 2.02 | F 1.79 | G 2.21 | H 1.79 | I 1.74 | K 1.85 | L 1.81 | M 2.05 | N 1.65 | P 1.61 | Q 2.17 | R 1.29 | S 2.31 | T 2.15 | V 2.79 | W 2.35 | Y 1.72
G5: A 2.44 | C 3.6 | D 3.43 | E 2.72 | F 1.83 | H 2.08 | I 2.72 | K 2.46 | L 2.49 | M 1.97 | N 3.27 | P 2.91 | Q 2.99 | R 2.46 | S 2.03 | T 2.72 | V 2.55
